Source: patent US20120263728A1

Experiments:
[1] = target: human Nav1.7 channel (type IX voltage-gated sodium channel alpha subunit) (human) (UniProt Q15858); test: cell-based or functional assay
[2] = target: recombinant rat Nav1.7 channels expressed in HEK cells (rat) (UniProt O08562); test: cell-based or functional assay
Chain of UniProt O08562 (O08562 whole entry): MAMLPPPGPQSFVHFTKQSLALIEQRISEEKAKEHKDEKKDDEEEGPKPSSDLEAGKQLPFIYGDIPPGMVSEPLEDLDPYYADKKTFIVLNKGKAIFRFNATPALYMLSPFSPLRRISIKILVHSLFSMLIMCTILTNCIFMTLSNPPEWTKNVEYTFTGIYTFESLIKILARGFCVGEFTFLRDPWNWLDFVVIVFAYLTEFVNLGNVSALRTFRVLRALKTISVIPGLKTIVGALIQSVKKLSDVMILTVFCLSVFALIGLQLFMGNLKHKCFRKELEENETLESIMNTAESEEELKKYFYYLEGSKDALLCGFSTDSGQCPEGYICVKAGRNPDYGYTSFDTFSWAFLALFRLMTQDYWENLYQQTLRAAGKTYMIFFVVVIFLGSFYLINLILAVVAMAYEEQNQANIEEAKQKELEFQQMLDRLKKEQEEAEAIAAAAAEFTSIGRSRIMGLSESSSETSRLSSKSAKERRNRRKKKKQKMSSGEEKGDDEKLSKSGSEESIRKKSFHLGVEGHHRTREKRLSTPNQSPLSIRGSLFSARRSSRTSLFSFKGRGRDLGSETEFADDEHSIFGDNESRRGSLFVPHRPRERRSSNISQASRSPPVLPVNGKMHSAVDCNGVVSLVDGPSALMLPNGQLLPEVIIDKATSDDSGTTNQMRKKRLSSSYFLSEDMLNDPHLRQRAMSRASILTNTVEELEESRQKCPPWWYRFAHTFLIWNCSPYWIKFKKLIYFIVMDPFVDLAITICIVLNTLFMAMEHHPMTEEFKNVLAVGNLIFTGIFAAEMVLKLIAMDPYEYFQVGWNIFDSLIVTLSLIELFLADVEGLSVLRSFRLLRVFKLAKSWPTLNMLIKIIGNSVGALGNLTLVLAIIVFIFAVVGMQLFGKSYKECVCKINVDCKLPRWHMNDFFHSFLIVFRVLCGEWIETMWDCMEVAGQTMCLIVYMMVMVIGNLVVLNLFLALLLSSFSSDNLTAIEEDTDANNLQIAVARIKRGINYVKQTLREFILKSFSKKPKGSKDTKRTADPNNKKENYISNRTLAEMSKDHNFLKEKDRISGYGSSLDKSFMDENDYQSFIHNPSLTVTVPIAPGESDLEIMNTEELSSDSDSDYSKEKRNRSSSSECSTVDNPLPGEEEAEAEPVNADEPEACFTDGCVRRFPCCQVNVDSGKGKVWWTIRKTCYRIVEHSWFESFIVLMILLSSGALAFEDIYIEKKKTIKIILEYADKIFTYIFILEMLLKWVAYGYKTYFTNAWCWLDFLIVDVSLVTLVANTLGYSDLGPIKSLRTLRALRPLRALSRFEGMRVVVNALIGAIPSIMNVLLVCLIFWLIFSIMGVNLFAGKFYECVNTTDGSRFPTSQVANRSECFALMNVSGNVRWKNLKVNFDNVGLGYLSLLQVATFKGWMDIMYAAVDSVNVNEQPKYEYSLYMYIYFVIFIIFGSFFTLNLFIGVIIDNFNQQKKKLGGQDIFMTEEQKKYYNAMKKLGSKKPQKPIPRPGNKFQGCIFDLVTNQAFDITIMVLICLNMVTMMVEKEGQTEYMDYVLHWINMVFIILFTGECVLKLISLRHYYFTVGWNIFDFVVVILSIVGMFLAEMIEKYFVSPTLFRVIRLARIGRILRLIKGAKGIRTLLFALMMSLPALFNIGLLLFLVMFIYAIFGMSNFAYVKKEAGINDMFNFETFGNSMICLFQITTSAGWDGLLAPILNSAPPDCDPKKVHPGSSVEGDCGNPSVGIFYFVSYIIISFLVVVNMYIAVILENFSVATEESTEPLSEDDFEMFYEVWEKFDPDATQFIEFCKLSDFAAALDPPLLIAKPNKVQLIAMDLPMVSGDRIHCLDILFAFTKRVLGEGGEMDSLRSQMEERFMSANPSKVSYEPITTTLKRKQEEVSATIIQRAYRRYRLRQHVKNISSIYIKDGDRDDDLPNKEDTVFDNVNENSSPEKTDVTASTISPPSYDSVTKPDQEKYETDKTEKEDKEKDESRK

| Binder | Nav1.7 inhibition (%) at 25 µg/ml, automated patch clamp on HEK cells [1] [%] | inhibition of Nav1.7 currents at 25 µg/ml, automated Patch Clamp [2] [%] |
| --- | --- | --- |
| CA167_00932 (antibody, from another filing, rabbit IgG1, V domains shown) VH: QSLEESGGRLVTPGTPLTLTCTVSGFSLSRYWMSWVRQAPGKGLEWIGNIGGGSGSTLYAPWAKGRSTISKTSTTVDLKITSPTTEDTATYFCGRYVKNGGGYRLDLWGPGTLVTVS VL: AAVLTQTPSSVSAAVGGTVTIKCQSSQSVYNNNEFSWYQQKPGQPPKLLIYDASKLASGVPSRFSGSGSGTQFTLTISGVQCDDVATYYCLGGYNDDTNRWAFGGGTEVVVE | 27 |  |
| CA167_01080 (antibody, from another filing, rabbit IgG1, V domains shown) VH: QSLEESGGRLVTPETPLTLTCTASGIDLSKWPMTWVRQAPGKGLEWIGIIGRSGSTNYASWAKGRFTISKTSTTVDLKMTSPTTEDTATYFCARGGSYYDLWGQGTLVTVS VL: AQVLTQTASPVSAAVGNTVTITCQSSQSVWKNNDLSWYQQKLGQPPKLLIYYASTLASGVSSRFKASGSGTQFTLTISDVQCDDAGTYYCVGSYDCSSADCNAFGGGTKVVVK | 46 | 26 |
| CA167_00983 (antibody, from another filing, rabbit IgG1, V domains shown) VH: QSVEESGGRLVTPGTPLTLTCTVSGFSLSNYAMSWVRQAPGKGLEWIGIIGKSGSTAYASWAKGRFTISRTSTTVDLEITSPTTEDTATYFCVRFVLLWGPGTLVTVS VL: AQVLTQTASPVSAAVGGTVTINCQSSQSVYKNNDLAWYQQKPGQPPKLLIYYASTLASGVSSRFKGSGSGTEFTLTISDAQCDDAATYYCLGSYDCSSADCNAFGGGTKVVVK | 41 |  |
